For orientation: Km means the substrate concentration at which the rate is half of its maximum.

We go through two proteins from ChEMBL document CHEMBL2073939, “Export pumps for anionic conjugates encoded by MRP genes” (Adv Enzyme Regul, 1999).

Substrate in data set [1]: CCCCC/C=C\C\C=C/C=C/C=C/[C@@H](SC[C@@H](NC(=O)CC[C@H](N)C(=O)O)C(=O)NCC(=O)O)[C@@H](O)CCCC(=O)O
The data set is described as follows: cells, lysate or membranes named.

Substrate in data set [2]: Cc1ccc(N(CC(=O)O)CC(=O)O)c(OCCOc2cc(-c3c4cc(Cl)c(=O)cc-4oc4cc(O)c(Cl)cc34)ccc2N(CC(=O)O)CC(=O)O)c1
Briefly: TP_TRANSPORTER: uptake in membrane vesicle from MRP1-expressing HeLa cells. Type of data set: functional, cell membranes.

B1: Multidrug resistance-associated protein 1 (Mus musculus) (protein)
chain: MALRSFCSADGSDPLWDWNVTWHTSNPDFTKCFQNTVLTWVPCFYLWSCFPLYFFYLSRHDRGYIQMTHLNKTKTALGFFLWIICWADLFYSFWERSQGVLRAPVLLVSPTLLGITMLLATFLIQLERRKGVQSSGIMLTFWLVALLCALAILRSKIISALKKDAHVDVFRDSTFYLYFTLVLVQLVLSCFSDCSPLFSETVHDRNPCPESSASFLSRITFWWITGMMVHGYRQPLESSDLWSLNKEDTSEEVVPVLVNNWKKECDKSRKQPVRIVYAPPKDPSKPKGSSQLDVNEEVEALIVKSPHKDREPSLFKVLYKTFGPYFLMSFLYKALHDLMMFAGPKILELIINFVNDREAPDWQGYFYTALLFVSACLQTLALHQYFHICFVSGMRIKTAVVGAVYRKALLITNAARKSSTVGEIVNLMSVDAQRFMDLATYINMIWSAPLQVILALYFLWLSLGPSVLAGVAVMILMVPLNAVMAMKTKTYQVAHMKSKDNRIKLMNEILNGIKVLKLYAWELAFQDKVMSIRQEELKVLKKSAYLAAVGTFTWVCTPFLVALSTFAVFVTVDERNILDAKKAFVSLALFNILRFPLNILPMVISSIVQASVSLKRLRIFLSHEELEPDSIERRSIKSGEGNSITVKNATFTWARGEPPTLNGITFSIPEGALVAVVGQVGCGKSSLLSALLAEMDKVEGHVTLKGSVAYVPQQAWIQNDSLRENILFGHPLQENYYKAVMEACALLPDLEILPSGDRTEIGEKGVNLSGGQKQRVSLARAVYSNSDIYLFDDPLSAVDAHVGKHIFEKVVGPMGLLKNKTRILVTHGISYLPQVDVIIVMSGGKISEMGSYQELLDRDGAFAEFLRTYANAEQDLASEDDSVSGSGKESKPVENGMLVTDTVGKHLQRHLSNSSSHSGDTSQQHSSIAELQKAGAKEETWKLMEADKAQTGQVQLSVYWNYMKAIGLFITFLSIFLFLCNHVSALASNYWLSLWTDDPPVVNGTQANRNFRLSVYGALGILQGAAIFGYSMAVSIGGIFASRRLHLDLLYNVLRSPMSFFERTPSGNLVNRFSKELDTVDSMIPQVIKMFMGSLFSVIGAVIIILLATPIAAVIIPPLGLVYFFVQRFYVASSRQLKRLESVSRSPVYSHFNETLLGVSVIRAFEEQERFIHQSDLKVDENQKAYYPSIVANRWLAVRLECVGNCIVLFAALFAVISRHSLSAGLVGLSVSYSLQITAYLNWLVRMSSEMETNIVAVERLKEYSETEKEAPWQIQETAPPSTWPHSGRVEFRDYCLRYREDLDLVLKHINVTIEGGEKVGIVGRTGAGKSSLTLGLFRINESAEGEIIIDGVNIAKIGLHNLRFKITIIPQDPVLFSGSLRMNLDPFSQYSDEEVWMALELAHLKGFVSALPDKLNHECAEGGENLSVGQRQLVCLARALLRKTKILVLDEATAAVDLETDNLIQSTIRTQFEDCTVLTIAHRLNTIMDYTRVIVLDKGEVRECGAPSELLQQRGIFYSMAKDAGLV
Regarding B1, the Km in data set [1] is 0.1 µM.

B2: Multidrug resistance-associated protein 1 (Homo sapiens) (protein)
chain: MALRGFCSADGSDPLWDWNVTWNTSNPDFTKCFQNTVLVWVPCFYLWACFPFYFLYLSRHDRGYIQMTPLNKTKTALGFLLWIVCWADLFYSFWERSRGIFLAPVFLVSPTLLGITMLLATFLIQLERRKGVQSSGIMLTFWLVALVCALAILRSKIMTALKEDAQVDLFRDITFYVYFSLLLIQLVLSCFSDRSPLFSETIHDPNPCPESSASFLSRITFWWITGLIVRGYRQPLEGSDLWSLNKEDTSEQVVPVLVKNWKKECAKTRKQPVKVVYSSKDPAQPKESSKVDANEEVEALIVKSPQKEWNPSLFKVLYKTFGPYFLMSFFFKAIHDLMMFSGPQILKLLIKFVNDTKAPDWQGYFYTVLLFVTACLQTLVLHQYFHICFVSGMRIKTAVIGAVYRKALVITNSARKSSTVGEIVNLMSVDAQRFMDLATYINMIWSAPLQVILALYLLWLNLGPSVLAGVAVMVLMVPVNAVMAMKTKTYQVAHMKSKDNRIKLMNEILNGIKVLKLYAWELAFKDKVLAIRQEELKVLKKSAYLSAVGTFTWVCTPFLVALCTFAVYVTIDENNILDAQTAFVSLALFNILRFPLNILPMVISSIVQASVSLKRLRIFLSHEELEPDSIERRPVKDGGGTNSITVRNATFTWARSDPPTLNGITFSIPEGALVAVVGQVGCGKSSLLSALLAEMDKVEGHVAIKGSVAYVPQQAWIQNDSLRENILFGCQLEEPYYRSVIQACALLPDLEILPSGDRTEIGEKGVNLSGGQKQRVSLARAVYSNADIYLFDDPLSAVDAHVGKHIFENVIGPKGMLKNKTRILVTHSMSYLPQVDVIIVMSGGKISEMGSYQELLARDGAFAEFLRTYASTEQEQDAEENGVTGVSGPGKEAKQMENGMLVTDSAGKQLQRQLSSSSSYSGDISRHHNSTAELQKAEAKKEETWKLMEADKAQTGQVKLSVYWDYMKAIGLFISFLSIFLFMCNHVSALASNYWLSLWTDDPIVNGTQEHTKVRLSVYGALGISQGIAVFGYSMAVSIGGILASRCLHVDLLHSILRSPMSFFERTPSGNLVNRFSKELDTVDSMIPEVIKMFMGSLFNVIGACIVILLATPIAAIIIPPLGLIYFFVQRFYVASSRQLKRLESVSRSPVYSHFNETLLGVSVIRAFEEQERFIHQSDLKVDENQKAYYPSIVANRWLAVRLECVGNCIVLFAALFAVISRHSLSAGLVGLSVSYSLQVTTYLNWLVRMSSEMETNIVAVERLKEYSETEKEAPWQIQETAPPSSWPQVGRVEFRNYCLRYREDLDFVLRHINVTINGGEKVGIVGRTGAGKSSLTLGLFRINESAEGEIIIDGINIAKIGLHDLRFKITIIPQDPVLFSGSLRMNLDPFSQYSDEEVWTSLELAHLKDFVSALPDKLDHECAEGGENLSVGQRQLVCLARALLRKTKILVLDEATAAVDLETDDLIQSTIRTQFEDCTVLTIAHRLNTIMDYTRVIVLDKGEIQEYGAPSDLLQQRGLFYSMAKDAGLV
Turning to B2, in data set [2], the Km worked out at 12 µM.
